Assay results from patent US20170296524A1 (KLINIKUM RECHTS DER ISAR DER TECHNISCHEN UNIVERSITAT MUNCHEN, published 2017).

T1: FLAG-MCT1 (human, UniProt P53985 1-500)
T1 construct: Expressed in HEK293T cells; The tag is written first only because the name prints it so; also called Flag-tagged MCT1; not shown: FLAG tag
T1 sequence (looked up): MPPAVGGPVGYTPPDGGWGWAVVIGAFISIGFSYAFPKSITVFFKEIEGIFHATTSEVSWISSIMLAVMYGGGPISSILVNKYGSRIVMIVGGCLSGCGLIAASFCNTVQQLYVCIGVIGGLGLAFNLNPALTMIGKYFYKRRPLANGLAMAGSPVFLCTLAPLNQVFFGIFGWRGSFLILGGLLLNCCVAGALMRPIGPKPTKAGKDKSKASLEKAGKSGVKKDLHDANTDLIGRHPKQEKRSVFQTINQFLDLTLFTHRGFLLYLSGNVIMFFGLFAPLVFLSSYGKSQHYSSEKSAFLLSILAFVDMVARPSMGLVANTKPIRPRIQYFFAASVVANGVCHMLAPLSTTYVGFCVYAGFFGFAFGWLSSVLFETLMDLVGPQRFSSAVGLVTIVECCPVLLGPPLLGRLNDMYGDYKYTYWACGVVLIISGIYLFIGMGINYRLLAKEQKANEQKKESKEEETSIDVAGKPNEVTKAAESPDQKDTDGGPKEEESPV

B1: MCT1 (monocarboxylate transporter 1), endogenous (other, human, UniProt P53985 1-500, looked up)
chain: T1 sequence (looked up)
notes: Endogenous protein in HEK 293T or MM1S cell lysates
B2: CD147 (Basigin, EMMPRIN), endogenous (other, human, UniProt P35613-2 22-269, looked up)
chain: AAGTVFTTVEDLGSKILLTCSLNDSATEVTGHRWLKGGVVLKEDALPGQKTEFKVDSDDQWGEYSCVFLPEPMGTANIQLHGPPRVKAVKSSEHINEGETAMLVCKSESVPPVTDWAWYKITDSEDKALMNGSESRFFVSSSQGRSELHIENLNMEADPGQYRCNGTSSKGSDQAIITLRVRSHLAALWPFLGIVAEVLVLVTIIFIYEKRRKPEDVLDDDDAGSAPLKSSGQHQNDKGKNVRQRNSS
modifications: core-glycosylated (CG) and high-glycosylated (HG) forms
notes: as for B1
B3: FLAG-CD147 (other, human, UniProt P35613-2 22-269, looked up)
chain: B2 chain
notes: Expressed in HEK293T cells; The tag is written first only because the name prints it so; also called FLAG-tagged CD147; not shown: FLAG tag
B4: HA-CD147 (other, human, UniProt P35613-2 22-269, looked up)
chain: B2 chain
notes: Expressed in HEK 293T cells; not shown: HA tag

What was measured:
HA-CUL4A = target: T2, HA-CUL4A (UniProt Q13619 1-759, limits assumed); experiment: HA-CUL4A purified from HEK293T cells, incubated with MM1S extracts, immunoblot
T2 construct: Purified from HEK293T cells and incubated with MM1S cell extracts; not shown: HA tag
T2 sequence (Q13619 whole entry): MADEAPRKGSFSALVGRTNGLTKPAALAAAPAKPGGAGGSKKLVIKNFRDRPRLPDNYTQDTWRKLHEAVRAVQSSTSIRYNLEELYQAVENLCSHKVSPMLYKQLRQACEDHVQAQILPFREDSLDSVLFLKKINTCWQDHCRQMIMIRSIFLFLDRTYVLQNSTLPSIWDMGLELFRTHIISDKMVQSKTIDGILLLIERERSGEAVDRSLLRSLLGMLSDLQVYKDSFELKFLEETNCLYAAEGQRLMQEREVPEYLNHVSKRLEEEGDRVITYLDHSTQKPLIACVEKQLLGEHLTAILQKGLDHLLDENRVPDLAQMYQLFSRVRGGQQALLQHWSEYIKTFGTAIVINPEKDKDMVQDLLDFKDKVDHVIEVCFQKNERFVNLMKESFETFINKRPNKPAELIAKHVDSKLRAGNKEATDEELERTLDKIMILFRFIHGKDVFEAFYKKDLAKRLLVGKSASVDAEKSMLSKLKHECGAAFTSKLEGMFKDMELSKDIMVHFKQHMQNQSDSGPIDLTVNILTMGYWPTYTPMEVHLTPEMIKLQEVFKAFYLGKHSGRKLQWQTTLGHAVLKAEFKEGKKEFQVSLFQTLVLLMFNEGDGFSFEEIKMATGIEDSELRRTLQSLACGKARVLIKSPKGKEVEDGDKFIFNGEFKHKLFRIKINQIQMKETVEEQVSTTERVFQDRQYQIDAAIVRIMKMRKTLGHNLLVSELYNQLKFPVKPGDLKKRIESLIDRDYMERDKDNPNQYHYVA
Source text: Bound protein fractions were subjected to immunoblot analysis using the indicated antibodies.

FLAG-MCT1 [1] = target: T1, FLAG-MCT1; experiment: FLAG-MCT1 immunoprecipitation from cycloheximide-treated HEK293T cells, immunoblot (FIG. 13G)
[2] = target: T3, Cereblon (CRBN), human, wild type, without tag (endogenous or expressed from plasmid) (human, UniProt Q96SW2 1-442); experiment: co-immunoprecipitation
T3 construct: Endogenous protein in HEK 293T or MM1.S/MM1S lysates, or untagged wild-type CRBN re-expressed in CRBN-/- HEK 293T cells; also called CRBN WT; endogenous CRBN
T3 sequence (Q96SW2 whole entry): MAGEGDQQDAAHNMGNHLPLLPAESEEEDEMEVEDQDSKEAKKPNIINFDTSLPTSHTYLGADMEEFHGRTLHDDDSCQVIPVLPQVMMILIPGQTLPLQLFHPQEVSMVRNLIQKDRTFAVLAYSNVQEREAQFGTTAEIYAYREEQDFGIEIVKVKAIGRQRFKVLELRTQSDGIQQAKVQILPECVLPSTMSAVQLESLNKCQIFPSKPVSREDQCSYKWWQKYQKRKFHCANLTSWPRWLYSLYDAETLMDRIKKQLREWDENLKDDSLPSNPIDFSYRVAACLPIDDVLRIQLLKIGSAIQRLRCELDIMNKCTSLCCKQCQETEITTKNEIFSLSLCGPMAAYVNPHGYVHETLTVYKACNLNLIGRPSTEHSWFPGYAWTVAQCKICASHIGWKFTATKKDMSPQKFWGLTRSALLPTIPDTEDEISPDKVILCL
Experimental: Immunocomplexes were probed with antibodies to the indicated proteins.
(§1) Cell samples were lysed in lysis buffer (NaCl 150mM, Tris-HCl 50 mM, MgCl2 5 mM, EDTA 1 mM, NP-40 0,1%, Glycerol 5% and inhibitors) for whole cell lysates, immunoprecipitations or pulldown experiments. […] Briefly, the cellular lysates were centrifuged 15 min at 14,000 rpm at 4° C. to separate from cellular debris. Protein concentration in the supernatants was measured before Laemmli buffer was added. The lysates were separated by SDS-PAGE and blotted onto PVDF (polyvinylidene difluoride) membranes. After blotting, PVDF membranes were stained with Ponceau solution to evaluate protein loading. After washing and blocking unspecific bindings in 5% milk, the membranes were incubated with primary antibodies. After addition of horseradish peroxidase coupled secondary antibodies, western blot membranes were developed using the ECL (enhanced chemoluminescence) method (SuperSignal West reagents from Thermo Scientific). […] For the experiments using a protein cross linker, DSS (Pierce) was added to the cells to a final concentration of 1 mM for 45 minutes at RT. […] After washing the beads four times in lysis buffer, Laemmli buffer was added and proteins were analyzed by SDS- electrophoresis.

[3] = target: T4, Strep-Flag tagged CRBN (CRBN-SF) (human, UniProt Q96SW2 1-442); experiment: tandem affinity purification (Strep, then Flag) from HEK 293T cells, mass spectrometry
T4 construct: Tag put at the C-terminus from the vector's name (pcDNA-C-SF-TAP); also called CRBN-SF-TAP; CRBN-tandem-Strep-FLAG-tagged; not shown: tandem Strep-FLAG tag of vector pcDNA-C-SF-TAP
T4 sequence (Q96SW2 whole entry): as above

[4] = target: B1; experiment: FLAG-CD147 immunoprecipitation from cycloheximide-treated HEK293T cells, immunoblot (FIG. 13F)
Experimental: Cells were treated with cycloheximide (CHX) for the indicated times before lysis.

[5] = target: T3, Cereblon (CRBN), human, wild type, …; experiment: heading of FIG. 16: FLAG immunoprecipitation from HEK293T cells (16A) and GST-CRBN pull-down (16B)
FLAG-MCT1 [6] = target: T1, FLAG-MCT1; experiment: Flag-bead immunoprecipitation of Flag-MCT1 from HEK 293T cells with or without co-expressed CRBN, Western blot for CD147
Experimental: After lysis, MCT1 was immunoprecipitated with Flag-beads. Binding to CD147 was analysed by Western Blot.
as §1

Binder: B1
binding result (HA-CUL4A): no binding

Binder: B2
binding result (HA-CUL4A): no binding
binding result (FLAG-MCT1 [1]): binds
binding result [2]: binds
binding result [3]: binds

Binder: B3
binding result [4]: binds
binding result [5]: binds

Binder: B4
binding result (FLAG-MCT1 [6]): binds
